Legend:
HeLa Kyoto [1] = experiment: thermal stability score vs G1/S (z-score of summed log2 fold changes over temperatures); higher = more thermally stable than in G1/S
HeLa Kyoto [2] = experiment: melting temperature (median over replicates), in situ; higher = more thermally stable
HeLa Kyoto [3] = experiment: solubility change mitosis vs G1/S (difference of NP-40 vs SDS log2 ratios) (log2 ratio difference); higher = more soluble in mitosis
HeLa Kyoto [4] = experiment: solubility in G1/S (NP-40 vs SDS abundance) (log2 ratio); higher = more soluble; conditions: cell cycle stage: G1/S
[5] = cell cycle stage: early G1 (4.5 h after nocodazole release)
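For melting temperature (median over replicates), in situ in this document: HeLa Kyoto cells synchronized by double thymidine or nocodazole block, proteins quantified by TMT10plex mass spectrometry, three independent biological replicates.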
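For solubility change mitosis vs G1/S (difference of NP-40 vs SDS log2 ratios) in this document: synchronized HeLa Kyoto cells (double thymidine block for G1/S, nocodazole release for mitosis), protein amounts in NP-40 versus SDS lysates quantified by mass spectrometry, three biological replicates.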
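For solubility in G1/S (NP-40 vs SDS abundance) in this document: HeLa Kyoto cells arrested at G1/S by double thymidine block, proteins quantified by TMT10plex mass spectrometry in mild NP-40 versus SDS extracts, three biological replicates.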
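For thermal stability score vs G1/S (z-score of summed log2 fold changes over temperatures) in this document: synchronized HeLa Kyoto cells, proteins quantified by TMT10plex mass spectrometry, three biological replicates, mitosis taken 0.5 h after nocodazole release, G1/S directly after double thymidine block.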

| Sequence | thermal stability score (HeLa Kyoto [1]; [5]) | thermal stability score (HeLa Kyoto [1]; cell cycle stage: mitosis) | melting temperature (HeLa Kyoto [2]; cell cycle stage: G1/S) | melting temperature (HeLa Kyoto [2]; cell cycle stage: mitosis) | solubility change mitosis (log2) (HeLa Kyoto [3]) | solubility in G1/S (log2) (HeLa Kyoto [4]) |
| --- | --- | --- | --- | --- | --- | --- |
| MNSSTSTMSEEPDALSVVNQLRDLAADPLNRRAIVQDQGCLPGLILFMDHPNPPVVHSALLALRYLAECRANREKMKGELGMMLSLQNVIQKTTTPGETKLLASEIYDILQSSNMADGDSFNEMNSRRRKAQFFLGTTNKRAKTVVLHIDGLDDTSRRNLCEEALLKIKGVISFTFQMAVQRCVVRIRSDLKAEALASAIASTKVMKAQQVVKSESGEEMLVPFQDTPVEVEQNTELPDYLPEDESPTKEQDKAVSRVGSHPEGGASWLSTAANFLSRSFYW [ARMC1] | 0.134 | 0.316 | 50.6 °C | 50.8 °C | 0.0691 | 0.386 |
| MNTAPSRPSPTRRDPYGFGDSRDSRRDRSPIRGSPRREPRDGRNGRDARDSRDIRDPRDLRDHRHSRDLRDHRDSRSVRDVRDVRDLRDFRDLRDSRDFRDQRDPMYDRYRDMRDSRDPMYRREGSYDRYLRMDDYCRRKDDSYFDRYRDSFDGRGPPGPESQSRAKERLKREERRREELYRQYFEEIQRRFDAERPVDCSVIVVNKQTKDYAESVGRKVRDLGMVVDLIFLNTEVSLSQALEDVSRGGSPFAIVITQQHQIHRSCTVNIMFGTPQEHRNMPQADAMVLVARNYERYKNECREKEREEIARQAAKMADEAILQERERGGPEEGVRGGHPPAIQSLINLLADNRYLTAEETDKIINYLRERKERLMRSSTDSLPGPISRQPLGATSGASLKTQPSSQPLQSGQVLPSATPTPSAPPTSQQELQAKILSLFNSGTVTANSSSASPSVAAGNTPNQNFSTAANSQPQQRSQASGNQPPSILGQGGSAQNMGPRPGAPSQGLFGQPSSRLAPASNMTSQRPVSSTGINFDNPSVQKALDTLIQSGPALSHLVSQTTAQMGQPQAPMGSYQRHY [NCOA5] | 0.658 | 1.68 | 49.9 °C | 49.1 °C | 0.489 | -0.619 |
| MNTEAEQQLLHHARNGNAEEVRQLLETMARNEVIADINCKGRSKSNLGWTPLHLACYFGHRQVVQDLLKAGAEVNVLNDMGDTPLHRAAFTGRKELVMLLLEYNADTTIVNGSGQTAKEVTHAEEIRSMLEAVERTQQRKLEELLLAAAREGKTTELTALLNRPNPPDVNCSDQLGNTPLHCAAYRAHKQCALKLLRSGADPNLKNKNDQKPLDLAQGAEMKHILVGNKVIYKALKRYEGPLWKSSRFFGWRLFWVVLEHGVLSWYRKQPDAVHNIYRQGCKHLTQAVCTVKSTDSCLFFIKCFDDTIHGFRVPKNSLQQSREDWLEAIEEHSAYSTHYCSQDQLTDEEEEDTVSAADLKKSLEKAQSCQQRLDREISNFLKMIKECDMAKEMLPSFLQKVEVVSEASRETCVALTDCLNLFTKQEGVRNFKLEQEQEKNKILSEALETLATEHHELEQSLVKGSPPASILSEDEFYDALSDSESERSLSRLEAVTARSFEEEGEHLGSRKHRMSEEKDCGGGDALSNGIKKHRTSLPSPMFSRNDFSIWSILRKCIGMELSKITMPVIFNEPLSFLQRLTEYMEHTYLIHKASSLSDPVERMQCVAAFAVSAVASQWERTGKPFNPLLGETYELVRDDLGFRLISEQVSHHPPISAFHAEGLNNDFIFHGSIYPKLKFWGKSVEAEPKGTITLELLEHNEAYTWTNPTCCVHNIIVGKLWIEQYGNVEIINHKTGDKCVLNFKPCGLFGKELHKVEGYIQDKSKKKLCALYGKWTECLYSVDPATFDAYKKNDKKNTEEKKNSKQMSTSEELDEMPVPDSESVFIIPGSVLLWRIAPRPPNSAQMYNFTSFAMVLNEVDKDMESVIPKTDCRLRPDIRAMENGEIDQASEEKKRLEEKQRAARKNRSKSEEDWKTRWFHQGPNPYNGAQDWIYSGSYWDRNYFNLPDIY [OSBPL1A] | -0.0179 | -0.158 | 51 °C | 51 °C | -0.0641 | 0.0257 |
| MNTVLSRANSLFAFSLSVMAALTFGCFITTAFKDRSVPVRLHVSRIMLKNVEDFTGPRERSDLGFITFDITADLENIFDWNVKQLFLYLSAEYSTKNNALNQVVLWDKIVLRGDNPKLLLKDMKTKYFFFDDGNGLKGNRNVTLTLSWNVVPNAGILPLVTGSGHVSVPFPDTYEITKSY [SPCS3] | 0.503 | 1.67 | 53.5 °C | 53.8 °C | -0.0576 | 0.0331 |
| MNVTPEVKSRGMKFAEEQLLKHGWTQGKGLGRKENGITQALRVTLKQDTHGVGHDPAKEFTNHWWNELFNKTAANLVVETGQDGVQIRSLSKETTRYNHPKPNLLYQKFVKMATLTSGGEKPNKDLESCSDDDNQGSKSPKILTDEMLLQACEGRTAHKAARLGITMKAKLARLEAQEQAFLARLKGQDPGAPQLQSESKPPKKKKKKRRQKEEEEATASERNDADEKHPEHAEQNIRKSKKKKRRHQEGKVSDEREGTTKGNEKEDAAGTSGLGELNSREQTNQSLRKGKKKKRWHHEEEKMGVLEEGGKGKEAAGSVRTEEVESRAYADPCSRRKKRQQQEEEDLNLEDRGEETVLGGGTREAESRACSDGRSRKSKKKRQQHQEEEDILDVRDEKDGGAREAESRAHTGSSSRGKRKRQQHPKKERAGVSTVQKAKKKQKKRD [GPATCH4] | 1.12 | 2.93 | 47.5 °C | 48.6 °C | 0.885 | -1.28 |
| MNWNKGGPGTKRGFGFGGFAISAGKKEEPKLPQQSHSAFGATSSSSGFGKSAPPQLPSFYKIGSKRANFDEENAYFEDEEEDSSNVDLPYIPAENSPTRQQFHSKPVDSDSDDDPLEAFMAEVEDQAARDMKRLEEKDKERKNVKGIRDDIEEEDDQEAYFRYMAENPTAGVVQEEEEDNLEYDSDGNPIAPTKKIIDPLPPIDHSEIDYPPFEKNFYNEHEEITNLTPQQLIDLRHKLNLRVSGAAPPRPGSSFAHFGFDEQLMHQIRKSEYTQPTPIQCQGVPVALSGRDMIGIAKTGSGKTAAFIWPMLIHIMDQKELEPGDGPIAVIVCPTRELCQQIHAECKRFGKAYNLRSVAVYGGGSMWEQAKALQEGAEIVVCTPGRLIDHVKKKATNLQRVSYLVFDEADRMFDMGFEYQVRSIASHVRPDRQTLLFSATFRKKIEKLARDILIDPIRVVQGDIGEANEDVTQIVEILHSGPSKWNWLTRRLVEFTSSGSVLLFVTKKANAEELANNLKQEGHNLGLLHGDMDQSERNKVISDFKKKDIPVLVATDVAARGLDIPSIKTVINYDVARDIDTHTHRIGRTGRAGEKGVAYTLLTPKDSNFAGDLVRNLEGANQHVSKELLDLAMQNAWFRKSRFKGGKGKKLNIGGGGLGYRERPGLGSENMDRGNNNVMSNYEAYKPSTGAMGDRLTAMKAAFQSQYKSHFVAASLSNQKAGSSAAGASGWTSAGSLNSVPTNSAQQGHNSPDSPVTSAAKGIPGFGNTGNISGAPVTYPSAGAQGVNNTASGNNSREGTGGSNGKRERYTENRGSSRHSHGETGNRHSDSPRHGDGGRHGDGYRHPESSSRHTDGHRHGENRHGGSAGRHGENRGANDGRNGESRKEAFNRESKMEPKMEPKVDSSKMDKVDSKTDKTADGFAVPEPPKRKKSRWDS [DDX42] | 3.02 | 7.75 | 47.2 °C | 48.8 °C | 0.145 | -0.252 |
